Experimental data taken from article PMC6779467, “Cytoplasmic protein misfolding titrates Hsp70 to activate nuclear Hsf1” (eLife, 2019).

B1: Hsf1-StrepTag II (natural protein, S. cerevisiae, UniProt P10961 1-833, looked up)
chain: MNNAANTGTTNESNVSDAPRIEPLPSLNDDDIEKILQPNDIFTTDRTDASTTSSTAIEDIINPSLDPQSAASPVPSSSFFHDSRKPSTSTHLVRRGTPLGIYQTNLYGHNSRENTNPNSTLLSSKLLAHPPVPYGQNPDLLQHAVYRAQPSSGTTNAQPRQTTRRYQSHKSRPAFVNKLWSMLNDDSNTKLIQWAEDGKSFIVTNREEFVHQILPKYFKHSNFASFVRQLNMYGWHKVQDVKSGSIQSSSDDKWQFENENFIRGREDLLEKIIRQKGSSNNHNSPSGNGNPANGSNIPLDNAAGSNNSNNNISSSNSFFNNGHLLQGKTLRLMNEANLGDKNDVTAILGELEQIKYNQIAISKDLLRINKDNELLWQENMMARERHRTQQQALEKMFRFLTSIVPHLDPKMIMDGLGDPKVNNEKLNSANNIGLNRDNTGTIDELKSNDSFINDDRNSFTNATTNARNNMSPNNDDNSIDTASTNTTNRKKNIDENIKNNNDIINDIIFNTNLANNLSNYNSNNNAGSPIRPYKQRYLLKNRANSSTSSENPSLTPFDIESNNDRKISEIPFDDEEEEETDFRPFTSRDPNNQTSENTFDPNRFTMLSDDDLKKDSHTNDNKHNESDLFWDNVHRNIDEQDARLQNLENMVHILSPGYPNKSFNNKTSSTNTNSNMESAVNVNSPGFNLQDYLTGESNSPNSVHSVPSNGSGSTPLPMPNDNDTEHASTSVNQGENGSGLTPFLTVDDHTLNDNNTSEGSTRVSPDIKFSATENTKVSDNLPSFNDHSYSTQADTAPENAKKRFVEEIPEPAIVEIQDPTEYNDHRLPKRAKK
notes: Hsf1, S. cerevisiae; HSF1 amplified with primers from the start codon to the last codon before the tag; also called Heat shock factor 1; yeast Hsf1; source: E. coli BL21-SI/pCodonPlus with pCA1026, coexpressed with 6xHis-SUMO-Ssa1 and Sis1; purified (Ni-IDA, Strep-Tactin Sepharose); not shown: Strep Tag II, C-terminal, kept

Assays:
Hsf1-StrepTag II = target: B1; test: pull-down; coexpression in E. coli; tandem affinity purification: Ni-IDA (6xHis-SUMO on Ssa1), Ulp1 cleavage, Strep-Tactin Sepharose (StrepTag II on Hsf1), elution with desthiobiotin; LWB150 (40 mM HEPES-KOH pH 7.5, 150 mM NaCl, 5 mM MgCl2, 5% glycerol); stoichiometry by densitometry of a Coomassie stained gel; conditions: partners not purified
[1] = target: the molecule itself; test: SEC; 500 ul of 2 mg/ml purified complex on HiLoad 16/600 Superdex200 pg, 1 mL/min, LWB150

| Binder | stoichiometry N (Hsf1-StrepTag II) | binding result [1] |
| --- | --- | --- |
| Ssa1 (6xHis-SUMO tag cleaved with Ulp1) (natural protein, Hsp70 Ssa1, S. cerevisiae; Same construct as m2 after cleavage of the tag with Ulp1 SUMO protease; also called Hsp70; Hsp70 Ssa1; source: E. coli BL21-SI/pCodonPlus with pCA1026, coexpressed with Hsf1-StrepTag II and Sis1; purified (Ni-IDA, Ulp1 cleavage, Strep-Tactin Sepharose through Hsf1); not shown: 6xHis-SUMO, N-terminal, cleaved) not shown | 3 Hsf1 per Ssa1 | – |
| B1 | – | binds |
